Results published in paper PMC12321301.
Where two headings read alike, the source gives them in different places.

How the values were obtained:
[1] = target: T1, cardiac troponin I (cTnI) (UniProt P19429 2-210); assay: direct ELASA
[2] = target: T1, cardiac troponin I (cTnI); assay: direct ELASA; remark: listed apart in the source

T1 sequence (P19429 2-210): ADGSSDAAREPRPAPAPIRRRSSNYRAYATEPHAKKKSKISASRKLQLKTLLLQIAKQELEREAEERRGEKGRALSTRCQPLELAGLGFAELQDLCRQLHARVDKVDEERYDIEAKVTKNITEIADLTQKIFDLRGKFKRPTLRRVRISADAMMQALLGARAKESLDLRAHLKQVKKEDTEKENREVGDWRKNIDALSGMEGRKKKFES

Row | Binder | binding result [1] | binding result [2]
1 | CGCATGCCAAACGTTGCCTCATAGTTCCCTCCCCGTGTCC (ssDNA) [Tro6 (5'-thiol C6, HRP conjugate)] | binds | 
2 | CGTGCAGTACGCCAACCTTTCTCATGCGCTGCCCCTCTTA (ssDNA) [Tro4 (5'-biotin)] |  | binds
